# Article PMC11374535
# Target: SlGrx9-nLUC
# Assay: luciferase complementation assay (LCA) in N. benthamiana leaves, quantified with ImageJ
# Details: parent: est. 6.1; read off a plot
row,Substance,response
1,cLUC-SlTrxh (from UniProt Q9LKW0) C54S,6
2,cLUC-SlTrxh (from UniProt Q9LKW0) C54W,15
